Key:
Experiment in all cases: IF staining, CHO cells
[1] = biological target: T1, FZD6 expressed on CHO cells (UniProt O60353 19-132, limits assumed)
T1 construct: As m62
T1 sequence (looked up): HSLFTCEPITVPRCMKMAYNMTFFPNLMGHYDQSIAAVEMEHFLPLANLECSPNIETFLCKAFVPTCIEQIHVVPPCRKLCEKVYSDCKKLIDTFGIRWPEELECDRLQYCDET

[2] = biological target: T2, FZD3 expressed on CHO cells (UniProt Q9NPG1 23-136, limits assumed)
T2 construct: As m62
T2 sequence (looked up): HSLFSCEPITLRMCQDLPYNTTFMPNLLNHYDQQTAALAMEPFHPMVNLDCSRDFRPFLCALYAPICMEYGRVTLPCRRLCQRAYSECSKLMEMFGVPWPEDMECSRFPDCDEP

[3] = biological target: T3, FZD10 expressed on CHO cells (UniProt Q9ULW2 29-150, limits assumed)
T3 construct: As m62
T3 sequence (looked up): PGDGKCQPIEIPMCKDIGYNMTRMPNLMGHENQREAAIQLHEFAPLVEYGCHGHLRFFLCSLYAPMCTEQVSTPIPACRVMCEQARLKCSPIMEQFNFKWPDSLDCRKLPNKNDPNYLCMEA

Measured: binding result

B1: Fab 5017 (Fab, V domains shown)
VH: EVQLVESGGGLVQPGGSLRLSCAASGFNLYYTDMHWVRQAPGKGLEWVASISLFFGYVSYADSVKGRFTISADTSKNTAYLQMNSLRAEDTAVYYCARYLAMDYWGQGTLVTVSS
VL: DIQMTQSPSSLSASVGDRVTITCRASQSVSSAVAWYQQKPGKAPKLLIYSASSLYSGVPSRFSGSRSGTDFTLTISSLQPEDFATYYCQQAAYHWPPLFTFGQGTKVEIKR
notes: Tested as purified Fab; also called 4A1
no binding: all assays above
